± gives the half width of the 95% confidence interval.
Experiments:
[1] = folding stability dG unfold from chymotrypsin proteolysis; higher = more stable
Summary of the method: (§1)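 K50 was inferred by Bayesian fitting of sequencing counts obtained after protease digestion of designed mini-proteins. Unfolding free energy was derived by comparison with a sequence-predicted unfolded-state K50 and a shared folded-state K50, for each protease or both combined. The mini-proteins were under 80 residues, had no cysteine, were carried in a PA-tagged cDNA display construct, and were kept only if AlphaFold2 dimer inter-PAE exceeded 15.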

[2] = folding stability dG unfold from trypsin proteolysis; higher = more stable
Summary of the method: as §1

[3] = folding stability dG unfold (combined trypsin and chymotrypsin); higher = more stable
Summary of the method: as §1

Sequence	folding stability dG unfold [1] [kcal/mol]	folding stability dG unfold [2] [kcal/mol]	folding stability dG unfold [3] [kcal/mol]
SAGPKIEIHYTPNGIHLTIELPGEWIWMMIPVPPGEKVKIRLPGNGLEITARPYDDYVMIRIRIPDAPSAGG [r19_384_TrROS]	5.3 ± 0.16	3.59 ± 0.083	4.74 ± 0.27
SAGMMTIEIELKNGKKIKIEVEKKNGKYIIKITVYDKNGKKVKEVKIEVPKKNMSLEEIIKEALKKLLKSAG [r5_630_TrROS_Hall]	3.71 ± 0.28	2.83 ± 0.2	3.73 ± 0.47
SAGGSAGGEVEIEVTEEEEVPGLPDQEIVTKAKLPDGKTVTIKRTVDPKTGKVSVSFSVIEPPLSAGGSAGG [r6_337_JUSTAS]	0.355 ± 0.2	0.44 ± 0.19	0.363 ± 0.24
SAGGSAGGMHINAPGSIEELEEKLGGPIAEATLEGPGTFTLTLENGVPITVSFDDPEQLEELIESAGGSAGG [r6_13_TrMRF]	0.243 ± 0.16	0.524 ± 0.059	0.387 ± 0.18
SKKKKPPKKTVTVVVKVKPGEKITLTLKNKDGKEIAKVEFTKLPEDEPLYIATVTLKDGKLTIKVTKLKPSA [r9_238_TrROS_Hall]	2.53 ± 0.13	2.1 ± 0.36	2.66 ± 0.34
SAGGSAGGKKTVEIEMTVDELLAALKSLSEEELKNVKIIGKDGKEFTLEDLEKNPGKIYKIEVKSAGGSAGG [r6_428_TrROS_Hall]	2.23 ± 0.074	0.694 ± 0.07	1.82 ± 0.16
SAGGSAGMVVEVREFEIEPDEDKKIKATLERYETPEGPRYVLTIEDPSKNEKKSYPLEPGVDFKKLSAGGSA [r15_75_JUSTAS]	0.681 ± 0.14	-0.0245 ± 0.26	0.488 ± 0.2
SAGSSISSISRSPVSTEEDPSTNVRRTTYLEKYPGPPNLLKEVTVTTTFAPDGTPTVTPAVTTLSPALLSAG [r5_48_JUSTAS]	-0.899 ± 0.68	-0.817 ± 0.26	-0.717 ± 0.17
SAGGFTIEELAEKFPNVEVYVQRFGNKYLIQFEFEDKDRKYQVVIKYDGPGKIDIKVMPPNQDAEEALSAGG [r13_859_TrROS]	3.094 ± 0.019	2.1 ± 0.069	2.8 ± 0.072
SPRTTVSFEVYMPPDQLKQNSIEDIADRVRDHFPGYKIKGIDIKFEPYPDPENGRPWVRVTVMIRVEPPESA [r9_1189_TrROS]	3.28 ± 0.098	2.34 ± 0.085	2.96 ± 0.14
SAGGSAGGSAGGKPKLIVRVKIKNENGEEIEIEIEVETLDEAKEAAKKLGFEIVEVEVLSAGGSAGGSAGGS [r10_882_TrROS_Hall]	2.54 ± 0.081	3.94 ± 0.23	3.28 ± 0.19
SDALKNIPFEIVEIDPPPPDRPIPAGGTVRITVYNPLTPGQPFTFDVRFIPGEGTLIAEIGGLPVEIPIGSA [r9_243_TrMRF]	3.46 ± 0.082	2.53 ± 0.079	2.94 ± 0.12
SAGGKEVKITFKAPKEEAVPKVKKAAEEYGVTVKSIDYDPETGKVTVVVDDSVPEEKVKEAFEKVLKSAGGS [r8_338_TrMRF]	1.75 ± 0.082	1.53 ± 0.078	1.75 ± 0.21
SAGGKNDVKTKTYEIEKDGGKITIEFEKLPDGKYKATVTYPDGKKETLVFDLGEGKEEEFAKEIAKKKSAGG [r13_296_TrMRF]	3.05 ± 0.067	1.46 ± 0.12	2.48 ± 0.38
SAGGSAGGSEEREYVEVEFEFLARLEDGSLLVTRVRLLLPAEPAELRPEVRSEVLPLAPGEELSAGGSAGGS [r12_811_TrMRF]	2.7 ± 0.063	1.48 ± 0.071	2.22 ± 0.16
SAGGSAGGSAGGGIVIEGDIESIEVEKNPDTDYYLVTVRFKSTDKPYTFVFKKDEKLDVSAGGSAGGSAGGS [r10_819_TrMRF]	2.16 ± 0.21	1.49 ± 0.036	1.77 ± 0.23
SAGGSAGGSAGGSPKTILLEVNGRLVLVTVKDGKVEIRDLENPNKTYTFPPGAKILIVDSAGGSAGGSAGGS [r4_321_TrROS_Hall]	1.91 ± 0.035	1.61 ± 0.021	1.84 ± 0.06

— the supplement of paper PMC12764529
